Results from patent publication US20190270815A1 (published 2019).

Columns and labels:
recombinant human PD-1 = recombinant human PD-1 (human, UniProt Q15116 25-167); test: SPR
[1] = target: T1, human PD-1 expressed on cells (human, UniProt Q15116 25-288); test: FACS blocking of PD-L1 binding
[2] = target: T1, human PD-1 expressed on cells; test: FACS

recombinant human PD-1, sequence (Q15116 25-167): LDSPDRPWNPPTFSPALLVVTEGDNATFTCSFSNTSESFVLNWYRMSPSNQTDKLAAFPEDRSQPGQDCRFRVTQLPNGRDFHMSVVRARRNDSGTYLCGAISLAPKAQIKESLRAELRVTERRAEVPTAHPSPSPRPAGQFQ
T1 sequence (Q15116 25-288): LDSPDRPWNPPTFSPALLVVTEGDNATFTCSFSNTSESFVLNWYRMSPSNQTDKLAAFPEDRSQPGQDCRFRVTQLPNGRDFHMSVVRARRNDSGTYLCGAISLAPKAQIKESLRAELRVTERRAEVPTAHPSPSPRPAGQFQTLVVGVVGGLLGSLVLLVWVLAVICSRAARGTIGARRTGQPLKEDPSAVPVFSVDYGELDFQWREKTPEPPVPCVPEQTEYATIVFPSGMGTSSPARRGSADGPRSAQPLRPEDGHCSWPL

Kd (recombinant human PD-1)	IC50 [1]	EC50 [2]	Binder
3.71 nM	3.1 nM	1.92 nM	1.139.15 hAb (antibody, V domains shown) VH: QLQLQESGPGLVKPSETLSLTCTVSGGSISSTTYYWGWIRQPPGKGLEWIGSISYSGTTYYNPSLKSRVTIPVDTSKNQISLKLSSVTAADTSLYYCARHLGYNSNWYPFDYWGQGTLVTVSS VL: QSALTQPPSVSGSPGQSVTISCTGTSSDVGSYNRVSWYQQPPGTAPEVIIYEVSNRPSGVPDRFSGSKSGNTASLTISGLQAEDEADYYCSSYTSSSTWVFGGGTKLTVL
0.175 nM	4.44 nM	2.09 nM	1.103.11 hAb (antibody, V domains shown) VH: QLQLQESGPGLVKPSETLTLTCTVSADSISSTTYYWVWIRQPPGKGLEWIGSISYSGSTYYNPSLKSRVTVSVDTSKNQFSLKLNSVAATDTALYYCARHLGYNGRYLPFDYWGQGTLVTVSS VL: QSALTQPASVSGSPGQSITISCTGTSSDVGFYNYVSWYQQHPGKAPELMIYDVSNRPSGVSDRFSGSKSGNTASLTISGLQAEDEADYYCSSYTNISTWVFGGGTKLTVL
2.79 nM	4.49 nM	2.62 nM	1.153.7 hAb (antibody, V domains shown) VH: EVQLLESGGGLVQPGGSLRLSCAASGFTFSSHAMSWVRQAPGKGLEWVSTITGGGGSIYYADSVKGRFTISRDNSKNTLYLQMNSLRAEDTAVYYCAKNRAGEGYFDYWGQGTLVTVSS VL: SYELTQPLSVSVALGQTARITCGGDNIGNKDVHWYQQKPGQAPVLVIYRDSNRPSGIPEGFSGSNSGNTATLTISRAQAGDEADYYCQVWDSIWVFGGGTKLTVL

The next lines start with the binder.

Binder	Kd (recombinant human PD-1)	IC50 [1]	EC50 [2]
1.49.9 hAb (antibody, V domains shown) VH: QLQLQESGPGLVKPSETLSLTCTVSGGSISSSTYYWGWIRQPPGKGLEWIGSISYSGSTYYNPSLKSRVTISVDTSKNQFSLKLSSVTDADTAVYYCARHLGYNGRYLPFDYWGQGTLVTVSS VL: QSALTQPASVSGSPGQSITISCTGTSSDVGFYNYVSWYQQHPGKAPEVMIYDVSNRPSGVSDRFSGSKSGNTASLTISGLQAEDEADYYCSSYTSISTWVFGGGTKLTVL	1.07 nM	4.21 nM	2.15 nM
1.7.3 hAb (antibody, V domains shown) VH: QLQLQESGPGLVKPSETLTLTCTVSGDSISSTTYYWVWIRQPPGKGLEWIGSISYSGNTYYNPSLKSRVTISVDTSKNHFSLKLSSVAATDTALYYCARHLGYNGRYLPFDYWGQGTLVTVSS VL: QSALTQPASVSGSPGQSITISCTGTSSDVGFYNYVSWYQQHPGKAPELMIYDVTNRPSGVSDRFSGSKSGNTASLTISGLQAEDEADYYCSSYTSISTWVFGGGTKLTVL	0.176 nM	3.51 nM	2.44 nM
